Data published in patent US20200031952A1 (CLOSED JOINT STOCK COMPANY BIOCAD, published 2020).
Each block holds one molecule with its values, some of them ahead of it.

Legend:
human IL-17A [1] = molecular target: T1, human IL-17A (human, UniProt Q16552 24-155, limits assumed); experiment: cell-based or functional assay
T1 construct: Used as analyte in the Octet tests, as immobilised antigen in ELISA and as cytokine in the HT1080 cell test; also called human recombinant IL-17A; Interleukin 17

rat IL-17A = molecular target: T2, rat IL-17A (rat, UniProt Q61453 18-150, limits assumed); experiment: BLI (OctetRed 96), BCD109 immobilised on AR2G sensors, IL-17A as analyte
T2 sequence (looked up): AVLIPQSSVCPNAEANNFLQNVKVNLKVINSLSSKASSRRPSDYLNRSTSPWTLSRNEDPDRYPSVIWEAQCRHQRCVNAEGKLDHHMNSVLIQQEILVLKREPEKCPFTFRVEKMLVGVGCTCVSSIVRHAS
Method: (§1) The test was conducted at a temperature of 30° C. and using PBS with 0.1% Tween-20 and 0.1% BSA as a working buffer.
(§2) Binding curves (after subtracting a reference signal) were analyzed using Octet Data Analysis software (Version 7.0) in accordance with the standard procedure and using 1:1 interaction model.

human IL-17A [2] = molecular target: T1, human IL-17A; experiment: BLI (OctetRed 96), BCD109 on AR2G sensors, 1:1 model; analyte 17,1 nM (heading: 'Human ... IL17 Fc'); Full R^2 0,775434
Method: as §1, §2

human IL-17A [3] = molecular target: T1, human IL-17A; experiment: BLI (OctetRed 96), BCD109 on AR2G sensors, 1:1 model; analyte 34,3 nM (heading: 'Human ... IL17 Fc'); Full R^2 0,744563
Method: as §1, §2

human IL-17A [4] = molecular target: T1, human IL-17A; experiment: BLI (OctetRed 96), BCD109 on AR2G sensors, 1:1 model; analyte 68,6 nM (heading: 'Human ... IL17 Fc'); Full R^2 0,383582
Method: as §1, §2

monkey IL-17A [5] = molecular target: T3, monkey IL-17A (monkey); experiment: BLI (OctetRed 96), BCD109 on AR2G sensors, 1:1 model; analyte 17,2 nM (heading: 'Macaque ... IL17 Fc'); Full R^2 0,753773
T3 chain: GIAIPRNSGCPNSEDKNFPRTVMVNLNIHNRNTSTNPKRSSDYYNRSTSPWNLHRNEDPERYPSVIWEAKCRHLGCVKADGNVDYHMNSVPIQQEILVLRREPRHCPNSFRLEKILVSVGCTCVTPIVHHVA
Method: as §1, §2

monkey IL-17A [6] = molecular target: T3, monkey IL-17A; experiment: BLI (OctetRed 96), BCD109 on AR2G sensors, 1:1 model; analyte 34,4 nM (heading: 'Macaque ... IL17 Fc'); Full R^2 0,061979
Method: as §1, §2

monkey IL-17A [7] = molecular target: T3, monkey IL-17A; experiment: BLI (OctetRed 96), BCD109 on AR2G sensors, 1:1 model; analyte 68,7 nM (heading: 'Macaque ... IL17 Fc'); Full R^2 0,672159
Method: as §1, §2

IC50, picomole as defined by the cell IL6 test (human IL-17A [1]): 1100 picomole
Molecule: AIN457 (anti-IL-17A antibody by Novartis)

Kd (human IL-17A [2]): 4.4 pM | Kd (human IL-17A [3]): < 1 pM | Kd (human IL-17A [4]): < 1 pM | Kd (monkey IL-17A [5]): < 1 pM | Kd (monkey IL-17A [6]): < 1 pM | Kd (monkey IL-17A [7]): < 1 pM
B1: BCD109 (antibody, V domains shown)
VH: QVQLVQSGGGLVQAGGSLRLSCAASGGTFATSPMGWLRQAPGKGTEFVAAISPSGGDRIYADSVKGRFTISRDNAGYFIYLQMNSLKPEDTAVYYCAVRRRFDGTSYYTGDYDSWGQGTLVTVSS
VL: EIVLTQSPGTLSLSPGERATLSCRASQSVSSSYLAWYQQKPGQAPRLLIYDASSRATGIPDRFSGSGSGTDFTLTISRLEPEDFAVYYCQQYSYSPVTFGQGTKVEIKR
notes: IgG1, transiently expressed; also called BCD109 antibody; BCD109 candidate; copies: 2 + 2
binding result (rat IL-17A): no binding (tested: 126 nM to 2 nM titrated)
